Test results published in patent US11767353B2, “Trail compositions with reduced immunogenicity” (Theraly Fibrosis, Inc., priority 2020, dated 2023).
Read-outs that look alike come from different tables or passages of the source.

Legend:
[1] = in mice; cited from earlier work
[2] = test system: ASPC-1/PSC xenografts; experiment: PSC/ASPC-1 subcutaneous xenograft in athymic nude mice; type: in vivo; settings: TLY012 IV 10 mg/kg every other day and/or sorafenib 20 mg/kg oral everyday for 2 weeks
Procedure: Six-week-old athymic nude mice were anesthetized for all procedures 5×10^6ASPC-1 cells (human pancreas adenocarcinoma ascites metastasis cell line derived from nude mouse xenografts initiated with cells from the ascites of a patient with cancer of the pancreas) were mixed with 5×10^4 PSC cells and injected in a subcutaneous in athymic nude mice. Before injection, the cells were trypsinized, counted, washed twice in 1×PBS and resuspended in 100 μl of Matrigel® matrix (Corning), and injected between the scapulae. Two weeks after the tumor transplantation, mice were injected with TLY012 via intravenous (IV) injection (10 mg/kg, every other day) for 2 weeks, while control mice received PBS. Western blot was performed on tissue extracts with antibodies against GAPDH (Santa Cruz 5 Biotechnology, sc-1694), α-SMA (Sigma, A2547), GRP78 (Santa Cruz Biotechnology, sc-13968), DR4 (Abcam, Cambridge, Mass., #13890), DR5 (Abcam, #47179), PDGF-Rb (Santa Cruz Biotechnology, sc-432), and Cl.PARP-1 (Cell Signaling Technology, #5625).
Comparative quantitative RT-PCR (qPCR) was performed in the tumor sample for fibrogenic markers. qPCR was performed in triplicate for each sample using fast SYBR Green Master Mix (Thermo Fisher Scientific) and StepOnePlus Real-Time PCR System (Thermo Fisher Scientific). The expression levels of target genes were normalized to the expression of 18s and calculated based on the comparative cycle threshold Ct method (2^−ΔΔCt).
Collagen deposition was detected with Masson's Trichrome staining and microscopy.
Mouse xenografts were generated as in Example 8. Two weeks after the tumor transplantation, mice were injected with TLY012 via intravenous (IV) injection (10 mg/kg, every other day) and/or sorafenib (20 mg/kg, oral everyday) for 2 weeks. The mice were euthanized when the tumor volume reached 1500 mm^3 and images of the excised xenografts recorded and tumor weight measured.

[3] = in apes; cited from earlier work
[4] = in rodents; cited from earlier work

Row | Compound | circulating half-life [1] | also measured
1 | 2K-PEG-TRAIL: 2K PEG derivatized TRAIL reported by Kim et al. 2011a | 3.9 h | 
2 | 5K-PEG-TRAIL: 5K PEG derivatized TRAIL reported by Kim et al. 2011a | 5.3 h | 
3 | 10K-PEG-TRAIL: 10K PEG derivatized TRAIL reported by Kim et al. 2011a | 6.2 h | 
4 | 20K-PEG-TRAIL: 20K PEG derivatized TRAIL reported by Kim et al. 2011a | 12.3 h | 
5 | 30K-PEG-TRAIL: 30K PEG derivatized TRAIL reported by Kim et al. 2011a | 17.7 h | 
6 | CNC(=O)c1cc(Oc2ccc(NC(=O)Nc3ccc(Cl)c(C(F)(F)F)c3)cc2)ccn1 [Sorafenib, reference compound] |  | tumor weight, Mean [2]: 967 mg
7 | TRAIL: Tumor necrosis factor-related apoptosis-inducing ligand, unmodified, literature values | 1.1 h | half-life [3]: about 30 minutes; half-life [4]: several minutes
